Earlier results on 1 substance are cited in PMC9020725.

The Kd is the constant that tells how readily two partners part at equilibrium.

Series [1] concerns the target ankyrin band 3 binding domain (Homo sapiens) (UniProt P16157).
In series [2] the target is beta-spectrin repeats 10-13 (Homo sapiens) (UniProt P11277).
UniProt P11277, sequence (P11277 1275-1688): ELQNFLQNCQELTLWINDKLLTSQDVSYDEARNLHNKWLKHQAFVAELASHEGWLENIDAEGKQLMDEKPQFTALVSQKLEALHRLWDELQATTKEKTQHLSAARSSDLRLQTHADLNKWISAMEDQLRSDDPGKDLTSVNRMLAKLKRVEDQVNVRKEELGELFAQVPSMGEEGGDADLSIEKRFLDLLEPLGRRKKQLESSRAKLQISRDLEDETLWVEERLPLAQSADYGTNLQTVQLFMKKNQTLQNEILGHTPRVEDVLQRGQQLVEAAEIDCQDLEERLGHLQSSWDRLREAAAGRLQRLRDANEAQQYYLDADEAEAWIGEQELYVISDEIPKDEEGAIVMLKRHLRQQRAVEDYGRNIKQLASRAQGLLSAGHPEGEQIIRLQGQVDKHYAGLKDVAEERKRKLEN

UniProt P16157, sequence (P16157 1-827): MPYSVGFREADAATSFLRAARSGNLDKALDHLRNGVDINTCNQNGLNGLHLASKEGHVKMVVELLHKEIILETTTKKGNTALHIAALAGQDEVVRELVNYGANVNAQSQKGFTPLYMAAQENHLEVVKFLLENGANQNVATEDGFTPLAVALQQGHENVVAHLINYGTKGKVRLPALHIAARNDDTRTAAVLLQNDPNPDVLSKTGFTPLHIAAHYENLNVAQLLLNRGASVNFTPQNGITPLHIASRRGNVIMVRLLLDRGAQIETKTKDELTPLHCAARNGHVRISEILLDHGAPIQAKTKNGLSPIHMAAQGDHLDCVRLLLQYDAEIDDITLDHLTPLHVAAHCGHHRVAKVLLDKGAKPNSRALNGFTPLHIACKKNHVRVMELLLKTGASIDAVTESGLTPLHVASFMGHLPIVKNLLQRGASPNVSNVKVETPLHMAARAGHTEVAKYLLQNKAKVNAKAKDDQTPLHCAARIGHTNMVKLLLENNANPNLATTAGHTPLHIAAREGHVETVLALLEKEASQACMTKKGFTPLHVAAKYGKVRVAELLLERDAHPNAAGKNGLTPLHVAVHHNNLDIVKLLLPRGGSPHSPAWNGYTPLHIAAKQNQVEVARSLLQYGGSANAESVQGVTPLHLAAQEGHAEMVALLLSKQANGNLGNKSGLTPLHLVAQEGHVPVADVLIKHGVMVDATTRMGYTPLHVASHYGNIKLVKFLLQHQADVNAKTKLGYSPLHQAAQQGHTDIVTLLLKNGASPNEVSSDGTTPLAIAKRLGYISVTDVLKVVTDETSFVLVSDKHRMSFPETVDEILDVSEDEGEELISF

KAHRP (from UniProt P09346): the Kd in series [1] is 1.55 µM; in series [2] it was 50 µM.
